What is called Kd is the equilibrium constant for the complex coming apart. For orientation: koff means the first-order rate constant of dissociation. Read a low koff as a long-lived complex. For orientation: kon means the rate constant with which the complex forms.

Here are results for five substances from patent US20110217291A1.

In test [1] the target is human IgG1 antibody (Lambda from human myeloma plasma, Sigma-Aldrich) (human). The test is described as follows: SPR (Biacore), IgG1 immobilized at 485 RU, receptor as analyte. Background: In SPR one partner is held on a chip, and binding of the other changes the refractive index at the surface.
Test [2] has the same target. In words: SPR (Biacore 3000), IgG1 immobilized at 458 RU, receptor as analyte, 1:1 model.
Test [3] concerns the target IgG of IgG Sepharose 6 Fast Flow resin (GE Healthcare). In words: batch binding of 293F conditioned media to IgG Sepharose, Western blot quantitation, n=2.
Test [4] has the same target. The test is described as follows: IgG-Sepharose column, 24 h CHO conditioned media, Western blot. (A western blot detects proteins with antibodies after separation by electrophoresis.)
The target is the same in test [5]. The test is described as follows: IgG-Sepharose column, one-day conditioned media of CHO cells at 37° C., Western blot.
For test [6] the target is unchanged. The test is described as follows: IgG-Sepharose column, purified protein, Western blot.
For test [7], the target named is human IgG1 antibody (Lambda from human myeloma plasma, Sigma-Aldrich) (human). In words: SPR (Biacore 3000), steady state, IgG1 immobilized at 1013 RU, receptor as analyte.

FcγRIA-CH6 (extracellular domain of human FcγRIA with a C-terminal six His tag), sequence (P12314 other isoform, or with tags, fused parts or gaps): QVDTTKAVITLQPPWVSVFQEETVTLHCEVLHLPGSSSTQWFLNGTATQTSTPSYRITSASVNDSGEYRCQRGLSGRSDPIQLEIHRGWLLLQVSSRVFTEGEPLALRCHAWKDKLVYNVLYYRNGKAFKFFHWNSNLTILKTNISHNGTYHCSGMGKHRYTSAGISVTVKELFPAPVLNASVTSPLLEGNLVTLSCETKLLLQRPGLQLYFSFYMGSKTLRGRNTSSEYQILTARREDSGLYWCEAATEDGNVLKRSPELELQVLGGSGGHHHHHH
untagged recombinant soluble human FcγRIA, sequence (P12314 16-282): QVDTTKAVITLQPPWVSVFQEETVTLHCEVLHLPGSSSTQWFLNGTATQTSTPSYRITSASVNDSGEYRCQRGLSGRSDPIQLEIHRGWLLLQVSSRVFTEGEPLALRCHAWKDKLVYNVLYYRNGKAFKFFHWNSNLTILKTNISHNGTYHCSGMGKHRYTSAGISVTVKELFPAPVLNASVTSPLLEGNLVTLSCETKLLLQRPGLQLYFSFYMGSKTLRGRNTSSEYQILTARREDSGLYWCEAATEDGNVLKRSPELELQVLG
aggregated FcγRIA (purified soluble FcγRIA incubated at 37° C.), sequence (P12314 16-282): as above
FcγRIIIA-CH6 (soluble monomeric human FcγRIIIA extracellular domain with C-terminal His6 tag), sequence (P08637 other isoform, or with tags, fused parts or gaps): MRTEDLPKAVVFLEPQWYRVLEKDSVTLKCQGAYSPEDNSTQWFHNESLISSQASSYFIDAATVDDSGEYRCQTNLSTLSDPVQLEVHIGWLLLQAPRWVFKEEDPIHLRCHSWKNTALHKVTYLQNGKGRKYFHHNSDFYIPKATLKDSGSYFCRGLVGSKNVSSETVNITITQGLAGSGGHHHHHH

In the case of “FcγRIA-CH6 (extracellular domain of human FcγRIA with a C-terminal six His tag) (from UniProt P12314 16-282) (receptor)”, in test [1], the Kd worked out at 0.17 nM, the koff amounted to 0.00046 s⁻¹ and the kon was 2.8e+06 M⁻¹ s⁻¹. For the same substance, in test [2], the Kd amounted to 0.17 nM, the koff was determined as 0.00046 s⁻¹ and the kon amounted to 2.8e+06 M⁻¹ s⁻¹. In test [3], this substance registered a percent of total expressed in IgG Sepharose flow-through (aggregate amount) of 66% and a percent of total expressed recovered from IgG resin of 21%.
In test [1], “untagged recombinant soluble human FcγRIA (from UniProt P12314 16-282) (receptor)” displayed a dissociation constant (Kd) of 0.17 nM, a koff of 0.00046 s⁻¹ and an on-rate constant (kon) of 2.8e+06 M⁻¹ s⁻¹. In addition, in test [4], the percent of total applied bound to IgG-Sepharose is 14% and the percent of total applied in the wash (unbound) is 86%. Also, in test [5], the percent of recovered protein bound and eluted turned out to be 20%; the percent of recovered protein in unbound fraction was 80%.
As for “aggregated FcγRIA (purified soluble FcγRIA incubated at 37° C.) (from UniProt P12314 16-282) (receptor)”, in test [6], the percent of total in bound fraction is 4% and the percent of total in unbound wash fraction is 96%.
Substance “FcγRIIIA-CH6 (soluble monomeric human FcγRIIIA extracellular domain with C-terminal His6 tag) (from UniProt P08637 18-195) (receptor)” yielded a Kd in test [7] of 630 nM.
On the same count and under the same terms, as for “FcγRIIA-CH6 (soluble monomeric human FcγRIIA extracellular domain with C-terminal His6 tag) (from UniProt P12318 34-212) (receptor)”, the figure is 1900 nM.
